Values quoted from earlier work, collected in publication PMC8480781.

Columns and labels:
[1] = target: Lys66 (UniProt position 148, FTKKMKENAKK); assay: potentiometry; conditions: PHS V66K; state not stated
[2] = target: Glu66 (UniProt position 148, FTKKMEENAKK); assay: stability; conditions: PHS V66E; state not stated

Substance | pKa [1] | pKa [2]
Staphylococcal nuclease PHS V66K (Staphylococcus aureus; P117G;H124L;S128A;V66K) | 6.25–6.45 | –
Staphylococcal nuclease PHS V66E (Staphylococcus aureus; P117G;H124L;S128A;V66E) | – | 8.73–9.28
